Test results published in the supplement of paper PMC9732359.
± gives the uncertainty stated by the source.

Assay: protein stability index of a GFP-peptide fusion (yeast GPS) (PSI 1-4); higher = more stable; sorted into four equal gates, so the index is relative within each strain
Procedure, shortened: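 Each library plasmid carries Cherry plus GFP with a tiled 17-residue yeast protein peptide fused downstream, and the pooled library was carried in yeast. Mid-log cultures in leucine-free medium were sorted into four equal gates by GFP/Cherry ratio. Reads from Illumina sequencing of PCR-amplified plasmids from each gate were assigned to strains by barcodes. Per peptide, the protein stability index was computed as the summed products of gate read frequency and gate number.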

| Sequence | protein stability index (doa10∆) | protein stability index (pdr5∆) | protein stability index (san1∆) | protein stability index (ubr1∆) |
| --- | --- | --- | --- | --- |
| VDIRVGKKSSSSTKDYL [RET1] | 3.42 ± 0.29 | 3.37 ± 0.12 | 3.56 ± 0.13 | 2.65 ± 0.18 |
| GLSTDHTTQIVNLEDNT [YML103C/NUP188] | 2.89 ± 0.074 | 2.99 ± 0.078 | 2.88 ± 0.053 | 3.04 ± 0.047 |
| VSKPAFSFGAKANEKKE [YJL041W/NSP1] | 3.07 ± 0.15 | 2.78 ± 0.24 | 2.95 ± 0.11 | 2.94 ± 0.16 |
| NECVCTPYNADFDGDEM [RPO31] | 3.06 ± 0.069 | 3.18 ± 0.069 | 3.06 ± 0.049 | 3.11 ± 0.09 |
| RQLSPHTLMSFAGEAGD [PRE1] | 1.69 ± 0.052 | 1.87 ± 0.057 | 1.83 ± 0.12 | 1.96 ± 0.041 |
| LNAIILKLEKLNTNRTF [SMC3] | 2.19 ± 0.047 | 2.31 ± 0.051 | 2.24 ± 0.09 | 2.76 ± 0.048 |
| DELEDDTLNETNLKMKR [RRP43] | 3.18 ± 0.093 | 3.25 ± 0.082 | 3.26 ± 0.075 | 3.36 ± 0.098 |
| RTQPWSIMPDLYFYRNP [RPS0B] | 2.55 ± 0.051 | 2.85 ± 0.056 | 2.85 ± 0.043 | 2.6 ± 0.055 |
| RCLVAVIQQDKYQKALH [SRP72] | 2.46 ± 0.2 | 2.23 ± 0.07 | 1.85 ± 0.1 | 2.09 ± 0.13 |
| QSISNENDVKPISIEAP [SWI3] | 2.55 ± 0.042 | 2.34 ± 0.044 | 2.42 ± 0.052 | 2.32 ± 0.037 |
| GPDTKGQLEDFDSELIH [SMC3] | 3.1 ± 0.21 | 3.52 ± 0.18 | – | 3.62 ± 0.22 |
| KIYDAFPQTAMLRRHAA [DIS3] | 2.41 ± 0.086 | 2.71 ± 0.079 | 2.58 ± 0.12 | 2.4 ± 0.061 |
| ETIENVKLQMIKFGGLI [ECM29] | 3.53 ± 0.1 | 3.37 ± 0.17 | 3.18 ± 0.11 | 3.26 ± 0.07 |
| HVLRGVESPDKNVRFRV [YCG1] | – | 3.68 ± 0.2 | 3.16 ± 0.15 | – |
| AEASGEAADEADEADEE [RPS9A] | 3.35 ± 0.23 | 3.03 ± 0.28 | 3.01 ± 0.15 | 3.45 ± 0.12 |
| IQLQEFLLSAMTMASKS [NSL1] | 1.5 ± 0.058 | 1.83 ± 0.1 | 1.81 ± 0.09 | 1.93 ± 0.059 |
| RIIREMFAYAKEHEPCI [RPT4] | 2.43 ± 0.1 | 2.65 ± 0.12 | 2.83 ± 0.11 | 2.58 ± 0.093 |
| NVLNQIHQILLPTNPTL [CSE2] | 2.65 ± 0.036 | 2.74 ± 0.037 | 2.14 ± 0.05 | 2.42 ± 0.035 |
| AALANANNNINSASSAP [SWI1] | 2.55 ± 0.088 | 1.91 ± 0.068 | 2.88 ± 0.13 | 2.55 ± 0.12 |
| ILYGPPGTGKTLLARAV [RPT6] | 3.4 ± 0.16 | 3.09 ± 0.23 | 3.35 ± 0.16 | 2.95 ± 0.21 |
| ALAYAGTGNNSAVKRLL [RPN2] | 2.68 ± 0.1 | 2.71 ± 0.1 | 2.28 ± 0.14 | 3.26 ± 0.1 |
| NLQPASVINNYLREDQM [NUT1] | 2.61 ± 0.075 | 3.08 ± 0.099 | 2.82 ± 0.094 | 2.93 ± 0.14 |
| VLQDLRLGSKKLVEIIW [YJL039C/NUP192] | 3.25 ± 0.1 | 3.09 ± 0.16 | 3.15 ± 0.068 | 3.39 ± 0.14 |
| AKRLIHGTSTSAEDEEN [CDC53] | 2.84 ± 0.14 | 2.44 ± 0.26 | – | 3.57 ± 0.19 |
| LVRNGPNEHPGAKYVIR [RPO21] | 2.91 ± 0.095 | 2.95 ± 0.1 | 2.76 ± 0.14 | 2.8 ± 0.084 |
| EQVRKMYQEWEDETVKV [NSL1] | 3.7 ± 0.09 | 3.52 ± 0.083 | 3.406 ± 0.032 | 3.58 ± 0.077 |
| SGKITDFIKFDAGKLVY [RPS4A] | 3.17 ± 0.066 | 2.92 ± 0.061 | 2.8 ± 0.06 | 3 ± 0.064 |

| Sequence | protein stability index (doa10∆) | protein stability index (pdr5∆) | protein stability index (san1∆) | protein stability index (ubr1∆) |
| --- | --- | --- | --- | --- |
| QNDQWSIQMEFMLRKQD [SSN2] | 2.53 ± 0.071 | 2.58 ± 0.088 | 2.4 ± 0.12 | 2.81 ± 0.074 |
| STAFQNTPLSLPTRGTL [COR1] | 2.27 ± 0.05 | 2.38 ± 0.038 | 1.97 ± 0.05 | 2.59 ± 0.035 |
| QASGITAGAAANALGGL [SSN3] | 2.56 ± 0.071 | 1.91 ± 0.068 | 2.13 ± 0.093 | 2.02 ± 0.058 |
| DEIATIQSKRLRNKIAG [RPS17A] | 3.15 ± 0.11 | 3.13 ± 0.099 | 3.33 ± 0.066 | 3.48 ± 0.14 |
| LWPVAIGLIALSATGTR [YJR042W/NUP85] | 1.75 ± 0.25 | – | 1.36 ± 0.23 | – |
| YLHIRDKILQLNDRFQT [PGD1] | 2.62 ± 0.056 | 2.02 ± 0.064 | 2.38 ± 0.053 | 2.27 ± 0.038 |
| IQRGRILPTDGSAEFNV [RPB7] | 2.8 ± 0.14 | 3.05 ± 0.086 | 3.03 ± 0.081 | 2.79 ± 0.075 |
| SNIDIRVRVTGGGHVSQ [RPS16A] | 2.02 ± 0.093 | 2.31 ± 0.063 | 2.78 ± 0.13 | 2.08 ± 0.044 |
| DLESMGLTQLYKKSTEN [MED7] | 2.9 ± 0.071 | 3.13 ± 0.067 | 2.81 ± 0.067 | 2.9 ± 0.047 |
| TFSQESGLMVILYTSKI [RRI2] | 2.78 ± 0.076 | 3.05 ± 0.084 | 2.6 ± 0.085 | 2.94 ± 0.053 |
| INIQKYNNNTIRKLLEK [CSI1] | 2.85 ± 0.25 | 2.51 ± 0.17 | – | 2.54 ± 0.11 |
| GITGNLDRIPMHSYFIF [COB] | 2.13 ± 0.12 | 2.19 ± 0.085 | 2.39 ± 0.072 | 2.43 ± 0.12 |
| GIHILLYSGLIIDEIIT [RPC82] | 1.15 ± 0.094 | 1.41 ± 0.25 | – | 1.21 ± 0.082 |
| LALAETLKLRARQRGKL [SRP68] | – | 2.64 ± 0.21 | 2.25 ± 0.26 | 2.97 ± 0.098 |
| REHFEKTVAVDSVFEQN [RPL3] | 2.94 ± 0.12 | 2.93 ± 0.18 | 2.12 ± 0.12 | 2.37 ± 0.12 |
| RGRNDTLERVHLSYCSN [GRR1] | 3.01 ± 0.055 | 3.2 ± 0.068 | 2.69 ± 0.1 | 2.98 ± 0.046 |
| GLDATKLYVSHIQVNQA [RPL17A] | 2.5 ± 0.096 | 2.99 ± 0.063 | 3 ± 0.043 | 3.05 ± 0.05 |
| KESDESKSAFSFGSKPT [YJL041W/NSP1] | 3.1 ± 0.048 | 3.22 ± 0.061 | 3.198 ± 0.029 | 3.108 ± 0.031 |
| NRSWDHAYNITFNNQDK [RPO31] | 2.75 ± 0.073 | 2.82 ± 0.061 | 2.7 ± 0.071 | 2.97 ± 0.042 |
| VFNNGIVVLVPKFGVEG [DIS3] | 2.22 ± 0.073 | 2.24 ± 0.072 | 2.27 ± 0.074 | 2.32 ± 0.053 |
| MIQPPQQGQNMSEQQWR [ROX3] | 2.15 ± 0.082 | 2.38 ± 0.06 | 2.39 ± 0.093 | 2.19 ± 0.033 |
| HMMKRWGYQMVWAPTQK [POP1] | 2.15 ± 0.054 | 2.4 ± 0.051 | 2.59 ± 0.059 | 2.56 ± 0.054 |
| KARAKKTKKEKGPNEEE [RPN2] | 3.45 ± 0.22 | 3.37 ± 0.15 | 3.43 ± 0.064 | 3.15 ± 0.18 |
| SALCILKEQELVLYDAE [BRR2] | 2.47 ± 0.16 | 2.72 ± 0.12 | 2.25 ± 0.11 | 2.52 ± 0.1 |
| VRKYDLNICRQCFREKA [RPS29B] | 2.12 ± 0.22 | 2.67 ± 0.092 | 2.02 ± 0.19 | 2.49 ± 0.11 |
| ADLESFANNHFLNSNAV [COR1] | 2.63 ± 0.11 | 2.87 ± 0.074 | 2.99 ± 0.056 | 2.71 ± 0.082 |
